Test results taken from paper PMC4440785, “Cytoplasmic Domain of MscS Interacts with Cell Division Protein FtsZ: A Possible Non-Channel Function of the Mechanosensitive Channel in Escherichia Coli” (PLoS ONE, 2015).

Assays:
[1] = biological target: E. coli FtsZ, purified (GTP-polymerized in the assays) (E. coli) (UniProt P0A9A6); experiment: co-sedimentation; co-sedimentation with GTP-polymerized FtsZ carried out similarly to Fig 2 panel A; data fitted with Hill model y = x^n/(Kd+x^n)
[2] = biological target: the molecule itself; experiment: 90° angle light scattering; FtsZ (12 μM) alone or with MBP-ABDOM (12 μM) or MBP in 50 mM PIPES pH 6.0, 1 mM EDTA, 5 mM MgCl2, 30 °C; polymerization induced by 1 mM GTP

Row | Molecule | Kd [1] | binding result [2]
1 | MBP-ABDOM (ABDOM of MscS with N-terminally fused maltose binding protein) (from UniProt P0C0S1 175-265) (domain or fragment) | 5.3 µM | 
2 | MBP-ABDOM-K258A/R259A (from UniProt P0C0S1 175-265) (domain or fragment) | 14.6 µM | 
3 | E. coli FtsZ, purified (GTP-polymerized in the assays) (natural protein, UniProt P0A9A6 1-383, looked up, cell division protein FtsZ, E. coli, from pET11-ftsZ (gift of H. P. Erickson); also called polymerized FtsZ; assembled FtsZ; source: E. coli BL21(DE3) carrying pET11-FtsZ, purified by GTP-induced precipitation (four times)) MFEPMELTNDAVIKVIGVGGGGGNAVEHMVRERIEGVEFFAVNTDAQALRKTAVGQTIQIGSGITKGLGAGANPEVGRNAADEDRDALRAALEGADMVFIAAGMGGGTGTGAAPVVAEVAKDLGILTVAVVTKPFNFEGKKRMAFAEQGITELSKHVDSLITIPNDKLLKVLGRGISLLDAFGAANDVLKGAVQGIAELITRPGLMNVDFADVRTVMSEMGYAMMGSGVASGEDRAEEAAEMAISSPLLEDIDLSGARGVLVNITAGFDLRLDEFETVGNTIRAFASDNATVVIGTSLDPDMNDELRVTVVATGIGMDKRPEITLVTNKQVQQPVMDRYQQHGMAPLTQEQKPVAKVVNDNAPQTAKEPDYLDIPAFLRKQAD |  | binds
